The values below come from patent publication US20250277025A1.

This test deals with human CLDN18.2 expressed on cells (human). As to the kind of experiment: cell-based or functional assay.

For the substance Human IgG1 isotype antibody, the ADCC (PBMC) on KATOIII CLDN18.2 cells, LDH: max (% cytotoxity) (run A) was 0.3%; the ADCC (PBMC) on KATOIII CLDN18.2 cells, LDH: max (% cytotoxity) (run B) is -5.51%; the ADCC (PBMC) on KATOIII CLDN18.2 cells, LDH: max (% cytotoxity) (run C) was -7.64%; the ADCC (PBMC) on NCI-N87 CLDN18.2 cells, LDH: max (% cytotoxity) (run A) is -6.73%. Besides, the ADCC (PBMC) on NCI-N87 CLDN18.2 cells, LDH: max (% cytotoxity) (run B) was -11.7% and the ADCC (PBMC) on NCI-N87 CLDN18.2 cells, LDH: max (% cytotoxity) (run C) is -9.22%.
